Target: histone H3 methylated on lysine 9 and phosphorylated on serine 10
Assay: binding graph, method not stated (FIG. 2)

For HP1 (heterochromatin protein 1), the fold drop in binding affinity (against H3 methylated on Lys 9 without phospho-Ser 10) was 100 fold.

Reference: patent US20060073517A1
